Measurements: US20240109954A1 (GENERAL HOSPITAL, published 2024)

Legend:
[1] = biological target: T1, mouse FcγRIII (mouse, UniProt P08508 31-215); experiment: BLI, mAb on anti-human Fab-CH1 sensor, FcγR in solution; monomeric mAb:receptor affinity of Table 6 (weak binding)
T1 construct: also called mFcγRIII; mFcγR3
T1 sequence: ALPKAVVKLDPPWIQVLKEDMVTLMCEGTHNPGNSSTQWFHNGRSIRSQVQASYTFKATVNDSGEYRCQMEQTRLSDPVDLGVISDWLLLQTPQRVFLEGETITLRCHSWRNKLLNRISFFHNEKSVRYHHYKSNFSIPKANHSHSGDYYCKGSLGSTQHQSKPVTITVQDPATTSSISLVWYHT

[2] = biological target: T2, human FcγR2A (R131) (human, UniProt P12318 34-217); experiment: SPR, mAb printed on chip, FcγR injected; SPR KD of Table 6: measurable but very weak (0.03-fold of IgG1)
T2 construct: also called huFcγR2A
T2 sequence: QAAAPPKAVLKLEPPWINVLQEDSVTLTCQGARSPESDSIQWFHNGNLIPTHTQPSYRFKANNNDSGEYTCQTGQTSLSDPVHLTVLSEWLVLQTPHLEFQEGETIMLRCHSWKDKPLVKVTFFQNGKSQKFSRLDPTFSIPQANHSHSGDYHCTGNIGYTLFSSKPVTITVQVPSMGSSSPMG

[3] = biological target: T3, human FcγR3A (F158) (human, UniProt P08637 17-208); experiment: SPR, mAb printed on chip, FcγR injected; SPR KD of Table 6: measurable but very weak (0.003-fold of IgG1)
T3 construct: also called huFcγR3A

[4] = biological target: T2, human FcγR2A (R131); experiment: SPR, mAb printed on chip, FcγR injected; fold-change of KD relative to IgG1, same SPR measurement
[5] = biological target: T3, human FcγR3A (F158); experiment: as above
[6] = biological target: T4, mouse FcγRI (mouse, UniProt P26151 25-297); experiment: BLI, mAb on anti-human Fab-CH1 sensor; ND = not detected
T4 construct: also called mFcγRI
T4 sequence: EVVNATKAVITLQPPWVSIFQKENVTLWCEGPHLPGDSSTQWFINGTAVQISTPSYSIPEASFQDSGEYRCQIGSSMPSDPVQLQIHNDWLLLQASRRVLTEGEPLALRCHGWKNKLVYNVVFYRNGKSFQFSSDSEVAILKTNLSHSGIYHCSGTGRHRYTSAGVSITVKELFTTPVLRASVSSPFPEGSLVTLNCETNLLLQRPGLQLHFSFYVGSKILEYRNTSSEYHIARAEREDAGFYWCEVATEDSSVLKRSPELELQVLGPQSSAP

[7] = biological target: T5, mouse FcγRIV (mouse, UniProt A0A0B4J1G0 21-203); experiment: as above
T5 construct: also called mFcγRIV
T5 sequence: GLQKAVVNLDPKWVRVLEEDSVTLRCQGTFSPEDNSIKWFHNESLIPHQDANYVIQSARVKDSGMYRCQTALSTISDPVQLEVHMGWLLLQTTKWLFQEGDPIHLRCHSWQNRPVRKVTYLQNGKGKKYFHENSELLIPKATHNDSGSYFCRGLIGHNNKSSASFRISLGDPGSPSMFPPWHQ

[8] = biological target: T6, mouse FcγRIIb (mouse, UniProt P08101 30-210); experiment: as above
T6 construct: also called mFcγRIIb; mFcγR2b
T6 sequence: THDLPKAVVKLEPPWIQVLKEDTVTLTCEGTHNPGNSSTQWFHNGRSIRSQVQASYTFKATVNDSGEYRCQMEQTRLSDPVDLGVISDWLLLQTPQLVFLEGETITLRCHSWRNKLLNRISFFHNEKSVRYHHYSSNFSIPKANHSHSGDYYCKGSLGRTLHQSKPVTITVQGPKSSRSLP

[9] = biological target: T7, human FcγR3B (human, UniProt O75015 17-200); experiment: SPR, mAb printed on chip, FcγR injected; ND = not detected
T7 construct: also called huFcγR3B

[10] = biological target: T8, human FcγR2B (human, UniProt P31994 43-217); experiment: as above
T8 construct: also called huFcγR2B
T8 sequence: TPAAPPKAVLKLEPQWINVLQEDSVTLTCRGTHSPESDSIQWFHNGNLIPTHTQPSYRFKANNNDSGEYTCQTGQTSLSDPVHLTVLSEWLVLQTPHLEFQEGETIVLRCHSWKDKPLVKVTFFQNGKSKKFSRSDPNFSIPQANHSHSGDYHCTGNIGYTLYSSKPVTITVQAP

[11] = biological target: T2, human FcγR2A (R131); experiment: SPR, mAb printed on chip, FcγR injected
[12] = biological target: T1, mouse FcγRIII; experiment: BLI, mAb on anti-human Fab-CH1 sensor, FcγR in solution
[13] = biological target: T4, mouse FcγRI; experiment: as above
[14] = biological target: T5, mouse FcγRIV; experiment: as above
[15] = biological target: T6, mouse FcγRIIb; experiment: as above
[16] = biological target: T1, mouse FcγRIII; experiment: as above; remark: listed apart in the source
[17] = biological target: T5, mouse FcγRIV; experiment: as above; remark: listed apart in the source
[18] = biological target: T6, mouse FcγRIIb; experiment: as above; remark: listed apart in the source
[19] = biological target: T2, human FcγR2A (R131); experiment: SPR, mAb printed on chip, FcγR injected; remark: listed apart in the source
[20] = biological target: T3, human FcγR3A (F158); experiment: SPR, mAb printed on chip, FcγR injected
[21] = biological target: T7, human FcγR3B; experiment: SPR, mAb printed on chip, FcγR injected
[22] = biological target: T8, human FcγR2B; experiment: SPR, mAb printed on chip, FcγR injected
[23] = biological target: T9, EBOV GP displayed on vesicular stomatitis virus (VSV) pseudovirions (Ebola virus, UniProt Q05320 33-676); experiment: cell-based or functional assay
T9 sequence: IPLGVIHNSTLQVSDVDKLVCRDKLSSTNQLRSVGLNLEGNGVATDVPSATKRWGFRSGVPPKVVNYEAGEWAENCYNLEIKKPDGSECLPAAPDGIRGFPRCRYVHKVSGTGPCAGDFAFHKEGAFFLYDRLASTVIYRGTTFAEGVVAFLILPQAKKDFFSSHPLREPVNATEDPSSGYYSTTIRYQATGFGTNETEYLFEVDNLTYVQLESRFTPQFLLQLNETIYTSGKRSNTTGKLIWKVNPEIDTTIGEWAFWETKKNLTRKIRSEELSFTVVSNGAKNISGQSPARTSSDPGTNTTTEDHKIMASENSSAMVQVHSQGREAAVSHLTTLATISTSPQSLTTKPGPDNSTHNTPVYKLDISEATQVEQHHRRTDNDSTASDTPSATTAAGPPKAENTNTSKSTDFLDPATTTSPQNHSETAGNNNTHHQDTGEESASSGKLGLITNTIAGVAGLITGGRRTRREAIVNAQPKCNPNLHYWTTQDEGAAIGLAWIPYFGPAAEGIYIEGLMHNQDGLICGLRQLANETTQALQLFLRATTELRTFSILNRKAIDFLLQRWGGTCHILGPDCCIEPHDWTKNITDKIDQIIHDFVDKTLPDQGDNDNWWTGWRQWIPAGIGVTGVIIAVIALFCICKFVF

[24] = biological target: T9, EBOV GP displayed on vesicular …; experiment: cell-based or functional assay; remark: listed apart in the source

T3 sequence (P08637 17-208): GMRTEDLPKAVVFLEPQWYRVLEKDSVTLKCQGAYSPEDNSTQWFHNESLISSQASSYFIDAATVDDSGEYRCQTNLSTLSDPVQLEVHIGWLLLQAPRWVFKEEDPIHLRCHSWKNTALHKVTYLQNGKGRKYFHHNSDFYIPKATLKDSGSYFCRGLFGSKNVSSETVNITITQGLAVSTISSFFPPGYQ
T7 sequence (O75015 17-200): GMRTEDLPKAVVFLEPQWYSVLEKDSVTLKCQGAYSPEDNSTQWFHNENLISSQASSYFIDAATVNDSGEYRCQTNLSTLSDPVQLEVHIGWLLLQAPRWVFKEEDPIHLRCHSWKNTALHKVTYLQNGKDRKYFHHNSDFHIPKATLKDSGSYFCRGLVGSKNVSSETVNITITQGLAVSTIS

B1: VIC16-LALA (antibody)
heavy: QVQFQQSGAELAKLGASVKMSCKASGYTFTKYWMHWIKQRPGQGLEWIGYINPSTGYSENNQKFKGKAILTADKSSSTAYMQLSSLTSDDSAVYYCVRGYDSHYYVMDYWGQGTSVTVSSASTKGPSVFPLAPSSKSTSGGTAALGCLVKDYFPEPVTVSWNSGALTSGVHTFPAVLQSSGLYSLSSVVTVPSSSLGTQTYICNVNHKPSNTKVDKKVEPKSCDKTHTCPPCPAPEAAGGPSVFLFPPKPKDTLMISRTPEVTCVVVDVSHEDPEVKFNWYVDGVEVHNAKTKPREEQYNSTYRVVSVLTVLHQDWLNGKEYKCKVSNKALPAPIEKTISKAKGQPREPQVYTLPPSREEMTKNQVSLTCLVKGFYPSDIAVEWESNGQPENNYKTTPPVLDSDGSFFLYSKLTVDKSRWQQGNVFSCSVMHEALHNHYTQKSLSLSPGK
light: DIVITQDTASLAVSRGQRATISCRASESVEYYGTTLMQWYQQRPGQPPKLLIYGASNVESGVPARFSGSGSGTDFSLNIHPVEEDDIAMYFCQQSRKVPYTFGGGTKLEIKRTVAAPSVFIFPPSDEQLKSGTASVVCLLNNFYPREAKVQWKVDNALQSGNSQESVTEQDSKDSTYSLSSTLTLSKADYEKHKVYACEVTHQGLSSPVTKSFNRGEC
Kd [1]: 820 µM
Kd [2]: 892 µM
Kd [3]: 1.7 mM
fold-change relative to IgG1 [4]: 0.03 fold
fold-change relative to IgG1 [5]: 0.003 fold
binding result [6]: no binding (tested: FcγR from 200 nM)
binding result [7]: no binding (tested: FcγR from 200 nM)
binding result [8]: no binding (tested: FcγR from 600 nM)
binding result [9]: no binding (tested: FcγR 10 µM to 0.005 µM)
binding result [10]: no binding (tested: FcγR 10 µM to 0.005 µM)

B2: VIC16-SDIEALGA (antibody)
heavy: QVQFQQSGAELAKLGASVKMSCKASGYTFTKYWMHWIKQRPGQGLEWIGYINPSTGYSENNQKFKGKAILTADKSSSTAYMQLSSLTSDDSAVYYCVRGYDSHYYVMDYWGQGTSVTVSSASTKGPSVFPLAPSSKSTSGGTAALGCLVKDYFPEPVTVSWNSGALTSGVHTFPAVLQSSGLYSLSSVVTVPSSSLGTQTYICNVNHKPSNTKVDKKVEPKSCDKTHTCPPCPAPELLAGPDVFLFPPKPKDTLMISRTPEVTCVVVDVSHEDPEVKFNWYVDGVEVHNAKTKPREEQYNSTYRVVSVLTVLHQDWLNGKEYKCKVSNKALPLPEEKTISKAKGQPREPQVYTLPPSREEMTKNQVSLTCLVKGFYPSDIAVEWESNGQPENNYKTTPPVLDSDGSFFLYSKLTVDKSRWQQGNVFSCSVMHEALHNHYTQKSLSLSPGK
light: B1 light
fold increase in KD compared to the VIC16 human IgG1 [11]: 18 fold
Kd [12]: 10 nM
fold-change relative to IgG1 [12]: 0.16 fold
Kd [13]: 100 nM
fold-change relative to IgG1 [13]: 0.8 fold
Kd [14]: 1 nM
fold-change relative to IgG1 [14]: 235 fold
Kd [15]: 130 nM
fold-change relative to IgG1 [15]: 114 fold
fold decrease in binding compared to IgG1 [16]: 6 fold
fold increase in binding [17]: 14 fold
fold increase in binding [18]: 4 fold
Kd [19]: 1600 nM
fold-change relative to IgG1 [19]: 19 fold
Kd [20]: 675 nM
fold-change relative to IgG1 [20]: 9 fold
Kd [21]: 3.2 µM
fold-change relative to IgG1 [21]: 7.8 fold
Kd [22]: 21 µM
fold-change relative to IgG1 [22]: 1.1 fold

B3: mIgG1 VIC16 (antibody, V domains shown)
VH: QVQFQQSGAELAKLGASVKMSCKASGYTFTKYWMHWIKQRPGQGLEWIGYINPSTGYSENNQKFKGKAILTADKSSSTAYMQLSSLTSDDSAVYYCVRGYDSHYYVMDYWGQGTSVTVSS
VL: DIVITQDTASLAVSRGQRATISCRASESVEYYGTTLMQWYQQRPGQPPKLLIYGASNVESGVPARFSGSGSGTDFSLNIHPVEEDDIAMYFCQQSRKVPYTFGGGTKLEIK
IC50, neutralization of VSV pseudotyped to display EBOV GP [23]: 0.34 µg/mL
IC50 (read off the curve) [Cont.] [24]: ~0.3 µg/mL
